The text below walks through data of PMC4534855 (2015).

The labels stand for the following.
B1: Flag-eIF2β, wild type [S. cerevisiae] / eIF2γ in yeast whole-cell extracts [yeast (endogenous in yeast whole-cell extracts)] (parent complex)
chain 1: MSSDLAAELGFDPALKKKKKTKKVIPDDFDAAVNGKENGSGDDLFAGLKKKKKKSKSVSADAEAEKEPTDDIAEALGELSLKKKKKKTKDSSVDAFEKELAKAGLDNVDAESKEGTPSANSSIQQEVGLPYSELLSRFFNILRTNNPELAGDRSGPKFRIPPPVCLRDGKKTIFSNIQDIAEKLHRSPEHLIQYLFAELGTSGSVDGQKRLVIKGKFQSKQMENVLRRYILEYVTCKTCKSINTELKREQSNRLFFMVCKSCGSTRSVSSIKTGFQATVGKRRRM
chain 2: MSDLQDQEPSIIINGNLEPVGEPDIVEETEVVAQETQETQDADKPKKKVAFTGLEEDGETEEEKRKREFEEGGGLPEQPLNPDFSKLNPLSAEIINRQATINIGTIGHVAHGKSTVVRAISGVQTVRFKDELERNITIKLGYANAKIYKCQEPTCPEPDCYRSFKSDKEISPKCQRPGCPGRYKLVRHVSFVDCPGHDILMSTMLSGAAVMDAALLLIAGNESCPQPQTSEHLAAIEIMKLKHVIILQNKVDLMREESALEHQKSILKFIRGTIADGAPIVPISAQLKYNIDAVNEFIVKTIPVPPRDFMISPRLIVIRSFDVNKPGAEIEDLKGGVAGGSILNGVFKLGDEIEIRPGIVTKDDKGKIQCKPIFSNIVSLFAEQNDLKFAVPGGLIGVGTKVDPTLCRADRLVGQVVGAKGHLPNIYTDIEINYFLLRRLLGVKTDGQKQAKVRKLEPNEVLMVNIGSTATGARVVAVKADMARLQLTSPACTEINEKIALSRRIEKHWRLIGWATIKKGTTLEPIA

The experiment covers variants of B1. In words: co-immunoprecipitation with FLAG affinity resin, quantified western; yeast whole-cell extracts; three biological replicates; read off a plot.
For the variant chain 1 F217A, chain 1 Q221A, the response was ~0.82 eIF2γ:eIF2β.

Consider chain 1 S202A, chain 1 K214A, for which the response was ~0.89 eIF2γ:eIF2β.
